Our source for the Kd values is publication PMC5910400 (2018).

Changes are numbered by the printed parent chain.

Among the targets are CCL11 (Homo sapiens); CCL7 (human, UniProt P80098 24-99); CCL13 (human, UniProt Q99616 24-98).
Holding throughout (experiment): BLI
A further assay concerns the target T1, CCL8 (Homo sapiens).
T1 chain: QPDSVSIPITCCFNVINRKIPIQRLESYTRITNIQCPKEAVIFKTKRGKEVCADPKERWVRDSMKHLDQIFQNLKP

The target in the next assay is T2, CCL17 (Homo sapiens).
T2 chain: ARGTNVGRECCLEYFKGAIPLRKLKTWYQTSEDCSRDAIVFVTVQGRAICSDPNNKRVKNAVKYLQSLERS

The next assay has as its target T3, CCL19 (Homo sapiens).
T3 chain: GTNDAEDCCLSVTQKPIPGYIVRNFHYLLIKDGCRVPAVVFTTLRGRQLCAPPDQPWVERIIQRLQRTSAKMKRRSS

The target of the next assay is T4, CCL1 (human, UniProt P22362 24-96).
T4 chain: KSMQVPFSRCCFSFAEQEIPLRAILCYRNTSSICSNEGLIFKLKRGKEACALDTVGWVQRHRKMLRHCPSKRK

The target of a further assay is T5, CCL4 (Homo sapiens).
T5 chain: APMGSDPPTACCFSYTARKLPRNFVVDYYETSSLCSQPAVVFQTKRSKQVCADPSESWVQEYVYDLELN

For another assay, the target named is T6, CCL14 (Homo sapiens).
T6 chain: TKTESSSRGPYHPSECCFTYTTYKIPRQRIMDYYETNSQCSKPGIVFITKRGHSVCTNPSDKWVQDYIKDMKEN

The next assay has as its target T7, CCL3 (human, UniProt P10147 24-92).
T7 chain: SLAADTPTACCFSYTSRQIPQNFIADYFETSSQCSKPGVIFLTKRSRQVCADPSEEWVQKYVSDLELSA

In another assay the target is T8, CCL22 (human, UniProt O00626 25-93).
T8 chain: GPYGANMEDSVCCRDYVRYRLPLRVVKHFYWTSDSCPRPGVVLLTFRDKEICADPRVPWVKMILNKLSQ

A further assay deals with T9, CCL3L1 (human, UniProt P16619 24-93).
T9 chain: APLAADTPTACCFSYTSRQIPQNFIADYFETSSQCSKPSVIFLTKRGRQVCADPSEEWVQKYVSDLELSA

A further assay deals with T10, CCL18 (Homo sapiens).
T10 chain: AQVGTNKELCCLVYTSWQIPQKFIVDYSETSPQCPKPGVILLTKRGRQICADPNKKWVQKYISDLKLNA

A further assay has as its target T11, CCL15 (Homo sapiens).
T11 chain: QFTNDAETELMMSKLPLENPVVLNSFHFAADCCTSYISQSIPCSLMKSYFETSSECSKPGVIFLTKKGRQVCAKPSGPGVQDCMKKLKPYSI

A further assay has as its target T12, CCL27 (Homo sapiens).
T12 chain: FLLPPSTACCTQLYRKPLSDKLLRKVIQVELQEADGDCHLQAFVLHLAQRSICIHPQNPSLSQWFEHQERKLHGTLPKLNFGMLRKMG

The target in a further assay is T13, CCL24 (Homo sapiens).
T13 chain: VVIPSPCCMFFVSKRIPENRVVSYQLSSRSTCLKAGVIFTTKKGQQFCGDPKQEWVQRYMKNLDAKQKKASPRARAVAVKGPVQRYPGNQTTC

In the next assay the target is T14, CCL5 (human, UniProt P13501 24-91).
T14 chain: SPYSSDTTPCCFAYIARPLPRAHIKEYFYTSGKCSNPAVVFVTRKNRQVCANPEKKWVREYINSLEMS

The target of another assay is T15, CCL4L1 (Homo sapiens).
T15 chain: T5 chain with S47G

A further assay deals with T16, CCL21 (human, UniProt O00585 24-134).
T16 chain: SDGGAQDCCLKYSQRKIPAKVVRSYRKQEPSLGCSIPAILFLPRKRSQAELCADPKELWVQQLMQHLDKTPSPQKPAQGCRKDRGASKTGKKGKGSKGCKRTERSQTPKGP

The target of another assay is T17, CCL16 (Homo sapiens).
T17 chain: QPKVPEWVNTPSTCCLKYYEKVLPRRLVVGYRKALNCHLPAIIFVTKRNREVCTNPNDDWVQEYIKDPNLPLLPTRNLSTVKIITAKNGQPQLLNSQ

A further assay addresses T18, CCL23 (human, UniProt P55773 22-120).
T18 chain: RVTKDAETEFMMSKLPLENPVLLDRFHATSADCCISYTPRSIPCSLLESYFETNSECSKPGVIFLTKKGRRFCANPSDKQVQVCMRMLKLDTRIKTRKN

CCL13, sequence (Q99616 24-98): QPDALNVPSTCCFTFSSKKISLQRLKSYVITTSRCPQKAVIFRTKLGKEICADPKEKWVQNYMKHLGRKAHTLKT
CCL11 (Homo sapiens), sequence (chain, as listed by the source): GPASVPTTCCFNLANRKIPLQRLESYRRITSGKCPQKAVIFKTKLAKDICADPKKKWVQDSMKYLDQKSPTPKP
CCL7, sequence (P80098 24-99): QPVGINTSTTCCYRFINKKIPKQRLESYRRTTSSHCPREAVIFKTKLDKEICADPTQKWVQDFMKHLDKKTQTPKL

B1: P1243 (evasin from Amblyomma americanum), purified, C-terminal StrepII:8xHis tag (natural protein)
chain: ETGRNHTEDNSTEYYDYEEARCACPARHLNNTNGTVLKLLGCHYFCNGTLCTAPDGYPCYNLTAQQVRTLTTYPNTSCAVGVCMKGTCVKNGTMEQCFKTP
What is called Kd is the constant that tells how readily two partners part at equilibrium. A low value points to higher affinity. On to B1, for which the Kd is 56.3 nM with CCL8; 6.1 nM with CCL17; 6.69 nM with CCL11; 3.9 nM with CCL19; 20 nM with CCL1; 12.2 nM in the assay with CCL4. Further, the Kd with CCL14 came out at 4.33 nM; in the assay with CCL7, 49.3 nM; with CCL3, 35.5 nM; with CCL22, 13 nM; with CCL13 it was 1.4 nM; with CCL3L1 it was 8.97 nM. The Kd with CCL18 came to 0.663 nM; in the assay with CCL15, 9.78 nM; with CCL27, 24 nM; with CCL24, 13 nM; with CCL5, 3.79 nM; in the assay with CCL4L1, 15.7 nM. For the same molecule, the Kd with CCL21 is 26 nM; with CCL16, 1.3 nM; with CCL23, 0.772 nM.
